“And” between values parts separate entries of the source, which are not always exact repeats. Equal values may be shown once. Read-outs that look alike come from different tables or passages of the source.
Columns and labels:
Assay in all cases: single-molecule diffusometry in an ABEL trap
[1] = molecular target: Nicotiana tabacum Rubisco activase S379C (Nt-Rca-S379C) (Nicotiana tabacum)
[2] = molecular target: Nicotiana tabacum Rubisco activase S379C (Nt-Rca-S379C) (Nicotiana tabacum); remark: listed apart in the source
[3] = molecular target: Nicotiana tabacum Rubisco activase S379C (Nt-Rca-S379C) (Nicotiana tabacum); remark: listed apart in the source
[4] = molecular target: Nicotiana tabacum Rubisco activase S379C (Nt-Rca-S379C) (Nicotiana tabacum); remark: listed apart in the source
[5] = molecular target: Nicotiana tabacum Rubisco activase S379C (Nt-Rca-S379C) (Nicotiana tabacum); remark: listed apart in the source

equilibrium constant for hexamer formation from dimers (Kd 2-4 x Kd 4-6) [1]: 0.2 μM^2
rate of subunit exchange [1]: 0.1 s⁻¹
stoichiometry N [1]: 2
stoichiometry N [2]: 4 and 6 and > 6
rate of subunit exchange [3]: > 0.2 s⁻¹
stoichiometry N [4]: 2
stoichiometry N [5]: 4 and 6
Substance: Nicotiana tabacum Rubisco activase S379C (Nt-Rca-S379C) (enzyme)

From publication doi:10.1101/191742
